Assay results reported in publication PMC8291764.

Experiments:
Kohinoor = test: SEC; purified protein diluted to 10 μM, equilibrated at 6 °C overnight; 250 μL on Superdex 200 Increase 10/300 GL, run at 6 °C, 0.75 mL/min, absorption at 280 nm; elution volumes compared with tetrameric DsRed, dimeric dTomato and monomeric mEGFP
Padron = test: as above

| stoichiometry N (Kohinoor) | stoichiometry N (Padron) | Substance |
| --- | --- | --- |
| 2 | – | Kohinoor |
| – | 4 | Padron |
